Target: the molecule itself
Assay: static small angle X-ray scattering (SAXS); conventional static SAXS, flow cell, no laser (ground state); difference scattering between wild type and monomeric mutant; 25 mM Tris pH 7.5, 100 mM NaCl, 2 mM DTT

B1: Arabidopsis thaliana UV-B resistance 8 (AtUVR8), wild type, residues 12-381 (domain or fragment, UniProt Q9FN03 12-381, looked up)
chain: APPRKVLIISAGASHSVALLSGDIVCSWGRGEDGQLGHGDAEDRPSPTQLSALDGHQIVSVTCGADHTVAYSQSGMEVYSWGWGDFGRLGHGNSSDLFTPLPIKALHGIRIKQIACGDSHCLAVTMEGEVQSWGRNQNGQLGLGDTEDSLVPQKIQAFEGIRIKMVAAGAEHTAAVTEDGDLYGWGWGRYGNLGLGDRTDRLVPERVTSTGGEKMSMVACGWRHTISVSYSGALYTYGWSKYGQLGHGDLEDHLIPHKLEALSNSFISQISGGWRHTMALTSDGKLYGWGWNKFGQVGVGNNLDQCSPVQVRFPDDQKVVQVSCGWRHTLAVTERNNVFAWGRGTNGQLGIGESVDRNFPKIIEALSVDG
notes: UV-B resistance 8 (UVR8), Arabidopsis thaliana, residues 12-381; Homodimer in the dark (ground) state; also called 2M-T-AtUVR8-His; source: E. coli BL21(DE3) GOLD, purified (IMAC, TEV cleavage, Q-Sepharose, MBPTrap flow-through); not shown: MBP-His-tag, N-terminal, cleaved
B1: binds.
